The text below walks through data of IntAct's records for PubMed 20881132.

For this experiment, the target named is sgg_drome sgg (UniProt P18431).
Chain of UniProt P18431 (P18431 whole entry): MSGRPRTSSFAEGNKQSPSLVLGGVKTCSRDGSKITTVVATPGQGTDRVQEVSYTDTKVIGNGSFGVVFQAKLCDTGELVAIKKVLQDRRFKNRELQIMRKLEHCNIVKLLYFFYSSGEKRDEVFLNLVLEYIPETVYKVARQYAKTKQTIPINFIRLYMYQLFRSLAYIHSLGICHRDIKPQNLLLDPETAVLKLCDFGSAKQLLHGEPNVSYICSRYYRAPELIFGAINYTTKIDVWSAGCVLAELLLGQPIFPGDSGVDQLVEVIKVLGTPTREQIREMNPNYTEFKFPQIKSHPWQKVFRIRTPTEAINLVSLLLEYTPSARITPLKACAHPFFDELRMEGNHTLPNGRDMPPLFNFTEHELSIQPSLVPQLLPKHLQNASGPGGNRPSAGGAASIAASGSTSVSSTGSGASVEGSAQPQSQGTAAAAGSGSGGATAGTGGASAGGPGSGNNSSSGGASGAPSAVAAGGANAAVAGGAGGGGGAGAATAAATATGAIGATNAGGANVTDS

As for “Leucine-rich repeat serine/threonine-protein kinase 2 (Homo sapiens), Q5S007 G2019S”, the “effect of a mutation on the interaction” value is given as “increasing interaction”.
